Reference: patent publication US9878007B2, “Syndecan peptides and polypeptides as inhibitors of vascular endothelial growth factor receptor-2 (VEGFR2) and very late antigen-4 (VLA-4)” (Wisconsin Alumni Research Foundation, priority 2015, dated 2018)

Columns and labels:
VLA-4 = molecular target: T1, VLA-4 (Homo sapiens, UniProt P05556+P13612); test: GST pull down assay: capture of VLA-4 by GST-S1ED; format: binding
T1 construct: the α4-integrin (VLA-4), which is expressed on myeloma cells; endogenous in cells; host or cells: CAG human myeloma cells (HPSE^low), whole-cell lysate
T1 sequence (P13612 34-1032): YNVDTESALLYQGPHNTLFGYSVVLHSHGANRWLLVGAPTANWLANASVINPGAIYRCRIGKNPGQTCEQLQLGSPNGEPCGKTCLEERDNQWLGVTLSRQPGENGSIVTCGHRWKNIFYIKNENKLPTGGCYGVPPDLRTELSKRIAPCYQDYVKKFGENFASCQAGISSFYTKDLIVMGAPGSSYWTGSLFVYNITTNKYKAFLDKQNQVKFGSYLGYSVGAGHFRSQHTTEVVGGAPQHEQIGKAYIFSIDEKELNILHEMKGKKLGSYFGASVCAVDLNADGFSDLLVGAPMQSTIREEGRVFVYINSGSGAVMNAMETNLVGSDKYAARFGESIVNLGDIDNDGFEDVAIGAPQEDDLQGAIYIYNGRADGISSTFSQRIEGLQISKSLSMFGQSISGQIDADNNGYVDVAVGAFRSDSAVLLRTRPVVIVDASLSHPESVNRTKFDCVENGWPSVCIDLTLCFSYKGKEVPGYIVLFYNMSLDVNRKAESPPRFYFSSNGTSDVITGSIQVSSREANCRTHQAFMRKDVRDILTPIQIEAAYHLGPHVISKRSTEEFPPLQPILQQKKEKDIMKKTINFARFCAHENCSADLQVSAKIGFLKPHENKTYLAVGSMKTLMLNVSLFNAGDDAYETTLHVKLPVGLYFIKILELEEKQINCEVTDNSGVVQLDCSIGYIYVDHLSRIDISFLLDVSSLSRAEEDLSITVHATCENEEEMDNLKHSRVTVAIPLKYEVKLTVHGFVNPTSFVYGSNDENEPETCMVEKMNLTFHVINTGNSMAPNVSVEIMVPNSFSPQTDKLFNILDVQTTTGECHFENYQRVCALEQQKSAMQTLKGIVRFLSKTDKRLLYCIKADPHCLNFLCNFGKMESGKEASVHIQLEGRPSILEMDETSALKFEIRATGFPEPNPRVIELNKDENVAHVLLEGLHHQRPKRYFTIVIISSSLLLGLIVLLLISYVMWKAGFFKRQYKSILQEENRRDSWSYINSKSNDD
T1 sequence (P05556 21-798): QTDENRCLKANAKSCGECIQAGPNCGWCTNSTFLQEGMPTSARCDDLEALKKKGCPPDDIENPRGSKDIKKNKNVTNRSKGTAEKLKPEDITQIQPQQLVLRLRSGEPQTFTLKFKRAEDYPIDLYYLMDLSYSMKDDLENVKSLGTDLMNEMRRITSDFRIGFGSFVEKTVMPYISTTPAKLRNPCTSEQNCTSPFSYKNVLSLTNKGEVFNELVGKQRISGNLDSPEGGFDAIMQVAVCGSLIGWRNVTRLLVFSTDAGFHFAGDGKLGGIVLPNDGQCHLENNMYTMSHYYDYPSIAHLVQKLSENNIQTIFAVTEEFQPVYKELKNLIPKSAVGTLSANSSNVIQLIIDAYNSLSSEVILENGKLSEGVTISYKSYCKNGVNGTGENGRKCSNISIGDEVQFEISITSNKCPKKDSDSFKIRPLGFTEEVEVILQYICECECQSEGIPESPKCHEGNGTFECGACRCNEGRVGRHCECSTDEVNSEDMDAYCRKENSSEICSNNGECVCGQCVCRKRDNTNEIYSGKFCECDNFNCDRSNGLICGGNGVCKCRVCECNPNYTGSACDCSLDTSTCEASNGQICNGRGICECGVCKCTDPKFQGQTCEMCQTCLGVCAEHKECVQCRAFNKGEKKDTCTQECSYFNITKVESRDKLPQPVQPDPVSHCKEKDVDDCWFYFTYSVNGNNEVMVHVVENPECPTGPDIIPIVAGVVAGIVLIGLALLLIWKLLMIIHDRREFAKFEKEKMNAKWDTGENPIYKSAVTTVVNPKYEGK
Protocol: (§1) FIGS. 6A-G. Peptides derived from the active site in Sdc1 activate or inhibit adhesion and invasion. (FIG. 6A) Transwell migration assays towards FN (for 16 hrs) were performed for HPSE low or high cells in the presence of 0, 0.3, 3, and 30 μM of S1ED^210-240. Cells migrating to the bottom side of the filter were counted from five random images for each treatment. (FIG. 6B) The sequence of S1ED210-240 is shown (SEQ ID NO: 3), as well as […] truncation mutants of the peptide (SEQ ID NOs: 5, 2, 4 and 7). Amino acids shown in red appear necessary for the spreading and invasive activity. (FIG. 6C) Images of HPSE^low and HPSE^high cells plated on FN for 2 hr. (FIG. 6D) HPSE^low cells were treated with 0, 0.3, 3, 10 and 30 μM of S1ED^210-236, S1ED^210-233, or S1ED^214-240, plated on FN for 2 hr, fixed and stained with fluorescent phalloidin. Cells from five random images were quantified for cell attachment and cell spreading. (FIG. 6E) HPSE^high cells were treated with 0, 3, 10, and 30 μM of S1ED^210-236, S1ED^210-233, and S1ED^214-240, plated on FN for 2 hr, then fixed, imaged and quantified as in FIG. 6D. (FIG. 6F) Transwell migration assays towards FN (for 16 hr) were performed for HPSE^low or HPSE^high cells in the presence of 30 μM of S1ED^210-236, S1ED^210-233, S1ED^214-240 and Vandetanib. (FIG. 6G) HPSE^low cell lysates were incubated overnight with glutathione beads coated with GST or GST-S1ED in the absence or presence of 30 μM of S1ED^210-236, S1ED^210-233, and S1ED^214-240. Capture of VLA-4 or VEGFR2 was detected by immunoblotting. Sequences in FIG. 6B are 210-240 (SEQ ID NO: 3), 210-236 (SEQ ID NO: 2), 210-233 (SEQ ID NO: 4), 214-240 (SEQ ID NO: 5) and 214-236 (SEQ ID NO: 7).
(§2) CAG cells were washed with CMF-PBS and then lysed for 20 min on ice in lysis buffer. Cell debris was removed by centrifugation at 13000 rpm for 20 min at 4° C. Whole cell lysates were then incubated at 4° C. overnight with either 3 μM GST or 3 μM GST-S1ED in the absence or presence of 1 μM, 3 μM, and 10 μM S1ED^210-240 peptide. GST or GST-S1ED was captured by addition of glutathione Sepharose and the beads were washed with ice-cold lysis buffer and CMF-PBS, prior to addition of SDS-PAGE sample buffer and analyszed by electrophoresis and western blotting as described previously.

CAG myeloma cells [1] = test: Cell spreading / attachment assay of CAG myeloma cells on FN or VCAM-1; format: cell-based, human
Protocol: Nitrocellulose-coated slides were coated for 2 hr at 37° C. with 40 μg/ml FN (kindly provided by Dr. Donna Peters, University of Wisconsin-Madison) or 5 μg/ml recombinant VCAM-1/Fc chimera (R&D Systems) in calcium and magnesium-free PBS (CMF-PBS; 135 mM NaCl, 2.7 mM KCl, 10.2 mM Na2HPO4-7H20 and 1.75 mM KH2PO4, pH7.4). Slides were blocked for 1 hr at 37° C. with RPMI 1640 containing 1% heat-denatured BSA (plating medium). Cells in plating medium were allowed to attach and spread for 2.5 hr at 37° C. Slides were fixed in 4% EM grade paraformaldehyde (Electron Microscopy Sciences) in CMF-PBS and labeled for 30 min in 0.13 μM rhodamine phalloidin (Invitrogen) in CMF-PBS. Coverslips were mounted in non-fluorescing mounting medium (Immumount; Thermo Shandon) and allowed to dry. All images were acquired with a Nikon Microphot FX microscope using a 20× objective (Nikon; Ex 541-551, DM 580, Barrier 590), Photometric CoolSnap ES camera, and version 7.7.3.0 Metamorph© Imaging software (Molecular Devices). All images represent results from triplicate wells and at least three independent experiments.

VLA-4 and VEGFR2 = molecular target: T2, VLA-4 and VEGFR2 (Homo sapiens, UniProt P05556+P13612+P35968); test: Immunostaining for co-localization of GST-S1ED with VLA-4 or VEGFR2; format: cell-based; conditions: HPSE^low cells on FN, 4 μM GST-S1ED, 2.5 hrs
T2 construct: the α4-integrin (VLA-4), which is expressed on myeloma cells; endogenous in cells; host or cells: CAG human myeloma cells (HPSE^low / HPSE^high) plated on fibronectin
T2 sequence (P35968 20-1356): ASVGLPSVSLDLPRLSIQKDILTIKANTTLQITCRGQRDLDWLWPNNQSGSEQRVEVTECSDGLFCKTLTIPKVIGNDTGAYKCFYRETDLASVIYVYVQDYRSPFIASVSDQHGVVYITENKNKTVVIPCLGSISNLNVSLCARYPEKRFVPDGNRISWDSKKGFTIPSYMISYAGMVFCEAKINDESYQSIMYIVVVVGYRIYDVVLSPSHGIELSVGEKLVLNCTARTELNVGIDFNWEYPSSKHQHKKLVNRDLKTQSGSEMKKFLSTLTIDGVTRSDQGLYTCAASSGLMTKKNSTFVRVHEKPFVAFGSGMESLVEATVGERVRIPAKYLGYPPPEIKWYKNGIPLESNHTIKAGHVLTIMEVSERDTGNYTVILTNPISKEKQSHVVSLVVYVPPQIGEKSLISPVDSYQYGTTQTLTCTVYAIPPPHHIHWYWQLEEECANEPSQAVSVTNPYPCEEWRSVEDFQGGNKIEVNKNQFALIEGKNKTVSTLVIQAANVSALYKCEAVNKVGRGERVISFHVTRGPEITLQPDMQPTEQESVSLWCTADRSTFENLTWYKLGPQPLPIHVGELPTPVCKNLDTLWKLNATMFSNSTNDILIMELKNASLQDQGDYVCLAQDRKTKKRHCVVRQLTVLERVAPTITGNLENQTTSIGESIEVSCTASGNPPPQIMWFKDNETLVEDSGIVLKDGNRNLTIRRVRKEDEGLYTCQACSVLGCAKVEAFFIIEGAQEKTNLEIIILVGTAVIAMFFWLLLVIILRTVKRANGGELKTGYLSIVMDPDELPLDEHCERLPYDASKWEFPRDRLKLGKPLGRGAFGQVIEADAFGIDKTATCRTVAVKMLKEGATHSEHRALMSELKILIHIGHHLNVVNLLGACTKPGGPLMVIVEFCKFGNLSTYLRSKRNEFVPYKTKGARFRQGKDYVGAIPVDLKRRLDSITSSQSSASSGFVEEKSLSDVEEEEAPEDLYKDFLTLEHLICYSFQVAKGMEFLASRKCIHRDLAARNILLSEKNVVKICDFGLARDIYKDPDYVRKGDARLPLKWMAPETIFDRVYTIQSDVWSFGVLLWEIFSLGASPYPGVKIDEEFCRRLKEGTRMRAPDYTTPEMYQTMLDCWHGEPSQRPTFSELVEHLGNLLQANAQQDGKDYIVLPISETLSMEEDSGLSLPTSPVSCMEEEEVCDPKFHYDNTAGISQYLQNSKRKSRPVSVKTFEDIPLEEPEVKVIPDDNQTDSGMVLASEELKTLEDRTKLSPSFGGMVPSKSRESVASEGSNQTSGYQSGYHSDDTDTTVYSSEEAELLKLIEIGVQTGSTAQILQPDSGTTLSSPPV
T2 sequence (P13612 34-1032): as the sequence (P13612 34-1032) above
T2 sequence (P05556 21-798): as the sequence (P05556 21-798) above
Protocol: (§3) FIGS. 5A-C. Recombinant Sdc1 ectodomain (GST-S1ED) causes capture of VEGFR2 by VLA-4. (FIG. 5A) HPSE^high cells were plated on FN for 2.5 hrs and double stained for VLA-4 and VEGFR2. (FIG. 5B) HPSE^low cells were plated on FN in the presence of 4 μM GST-S1ED. After 2.5 hrs, cells were double-stained for GST to detect the GST-S1ED and VLA-4 or VEGFR2. (FIG. 5C) HPSE^low cells were plated on FN-pre-coated dishes for 2.5 hr in the absence or presence of GST-S1ED and whole cell lysates were prepared for immunoprecipitation with anti-VEGFR2 and VLA-4 antibodies. The associated VLA-4 was detected by immunoblotting with a VLA-4 antibody.
Fixed cells on FN-coated slides were quenched with 0.1 M glycine, permeabilized with CMF-PBS containing 0.1% Triton X-100 for 3 min at room temperature (RT) and blocked with 5% BSA in CMF-PBS. […]

VEGFR2 and VLA-4 [2] = molecular target: T3, VEGFR2 and VLA-4 (Homo sapiens, UniProt P05556+P13612+P35968); test: Immunoprecipitation of VEGFR2 and detection of associated VLA-4; format: cell-based; conditions: HPSE^low cells on FN, 2.5 hr, in the presence of GST-S1ED
T3 construct: the α4-integrin (VLA-4), which is expressed on myeloma cells; endogenous in cells; host or cells: CAG human myeloma cells (HPSE^low / HPSE^high) plated on fibronectin
T3 sequence (P35968 20-1356): as the sequence (P35968 20-1356) above
T3 sequence (P13612 34-1032): as the sequence (P13612 34-1032) above
T3 sequence (P05556 21-798): as the sequence (P05556 21-798) above
Protocol: as §3
HPSE^low cells were plated on FN in the presence of 4 μg/ml GST or GST-S1ED for 2.5 hr. The cells were washed with CMF-PBS, then lysed for 20 min on ice in lysis buffer (0.5% Triton X-100 in 50 mM Hepes, 50 mM NaCl and 10 mM EDTA (pH 7.4) containing a 1:1000 dilution of protease inhibitor mixture set III (Calbiochem). Cell lysates were precleared at 13000 rpm for 20 min at 4° C. using 50 μg/ml isotype-matched nonspecific IgG and 30 μl of protein G agarose (GE Healthcare), then incubated at 4° C. overnight with either 10 μg/ml anti-α4-integrin (P1H4) or VEGFR2 (mAb 55B11) or nonspecific mouse IgG. Immunoprecipitated α4-integrin or VEGFR2 were dissolved in SDS sample buffer), electrophoresed and analyzed on western blots as described previously. […]

VEGFR2 = molecular target: T4, VEGFR2 (Homo sapiens, UniProt P35968); test: GST pull down assay: capture of VEGFR2 by GST-S1ED; format: binding
T4 construct: endogenous in cells; host or cells: CAG human myeloma cells (HPSE^low = empty vector; HPSE^high = human HPSE cDNA)
T4 sequence (P35968 20-1356): as the sequence (P35968 20-1356) above
Protocol: as §1, §2

VEGFR2 and VLA-4 [3] = molecular target: T3, VEGFR2 and VLA-4; test: Activation / inhibition of Sdc1-mediated coupling of VEGFR2 to VLA-4 (FIGS. 6A-H); format: cell-based
Protocol: as §1
It is envisioned that a peptide that contains binding sites for both VEGFR2 and VLA-4, such as 210-236, has the capacity to bridge both receptors and link them together. This activates signaling that the cells use for migration and invasion. […]

CAG myeloma cells [4] = test: Transwell migration assay of CAG myeloma cells towards FN; format: cell-based, human; conditions: 16 hrs
Protocol: The bottom chambers of Transwell filter chambers (8 μm pores; Corning) were coated with 40 μg/ml of FN. Cells (5×10^5 in 0.2 ml plating medium) were placed in the upper chamber and incubated for 16 hr at 37° C. in the CO2 incubator. After incubation, cells in the upper chamber were removed and cells on the bottom side of the filter were fixed in 4% paraformaldehyde (PFA) and stained with 0.1% Crystal Violet before imaging. Cells from at least five random fields were counted.

[5] = test system: human SKBr3 mammary carcinoma cells; test: Breast cancer xenograft treated with systemic peptide; format: in vivo; conditions: SKBr3 xenografts in nude mice; 1.09 mg/kg/day by Alzet pump for 3 weeks
Protocol: FIG. 9. Treatment of breast cancer xenograft with systemic S1ED^210-240. 4×10^6 human SKBr3 mammary carcinoma cells were injected in a 1:1 mix with matrigel into the posterior flanks of immunodeficient nude (nu/nu) mice and allowed to establish for one week as palpable tumors. Alzet pumps were then implanted subcutaneously on the anterior dorsal backs of the animals, systemically delivering either phosphate buffered-saline alone (PBS) or S1ED 210-240 peptide in PBS for 3 weeks of treatment. Peptide was delivered at 1.09 mg/kg/day, a concentration estimated to achieve concentrations sufficient to block the VLA-4/VEGFR2 mechanism. Tumor sizes were measured with calipers and converted to tumor volumes using the equation […]. The data are shown as the mean of 12 tumors+/−S.E.M.

Row | Substance | capture of VLA-4 by GST-S1ED (VLA-4; CAG myeloma cell lysates) | capture of VLA-4 by GST-S1ED (VLA-4; HMEC-1 cell lysate) | rescue of HPSE^high polarized phenotype blocked by MMP9 blocking antibody (CAG myeloma cells [1]; on FN, GST-S1ED added) | induction of HPSE^low cell spreading by GST-S1ED constructs (CAG myeloma cells [1]; on VCAM-1, 4 μM GST-S1ED constructs) | co-localization with VEGFR2 or VLA-4 (VLA-4 and VEGFR2) | co-immunoprecipitation of VLA-4 with VEGFR2 (VEGFR2 and VLA-4 [2]) | capture of VEGFR2 by GST-S1ED (VEGFR2; CAG myeloma cell lysates) | capture of VEGFR2 by GST-S1ED (VEGFR2; HMEC-1 cell lysate) | concentration at which the peptide inhibits the mechanism (VEGFR2 and VLA-4 [3]) [µM] | induction of HPSE^low cell spreading by S1ED peptides (CAG myeloma cells [1]; on VCAM-1, 0.3 μM peptide) | FN-induced migration of HPSE^high cells (CAG myeloma cells [4]; 30 μM peptide) | migration of HPSE^low cells (CAG myeloma cells [4]; 30 μM peptide) | migration of HPSE^low cells (CAG myeloma cells [4]; low concentrations, 0.3-3 μM peptide) | size of the tumors [5]
1 | GST-S1ED: recombinant GST-tagged Sdc1 ectodomain expressed in bacteria and devoid of HS | captures both VLA-4 and VEGFR2 | captures VLA-4 and VEGFR2 from HMEC-1 cells lysates | polarized phenotype is rescued | induced cell spreading | co-localized with VEGFR2 or VLA-4 at the protrusive lamellipodium | VLA-4 is co-immunoprecipitated with VEGFR2 | captures both VLA-4 and VEGFR2 | captures VLA-4 and VEGFR2 from HMEC-1 cells lysates | – | – | – | – | – | –
2 | S1ED^210-240: peptide corresponding to amino acids 210-240 of syndecan-1 ectodomain (SEQ ID NO: 3) (DFTFETSGENTAVVAVEPDRRNQSPVDQGAT) | – | – | – | – | – | – | – | – | 30 | sufficient to induce HPSE^low cell spreading on VCAM-1 | decreased | failed to induce | induced migration of HPSE^low cells at low concentrations | effectively reduced the size of the tumors
